We go through two molecules from US6764837 (BOARD OF TRUSTEES OF THE UNIVERSITY OF ARKANSAS, dated 2004).

Series [1] has as its target T1, RpoA (RNAP alpha subunit), untagged (Agrobacterium tumefaciens) (UniProt P0A4E3).
T1 sequence: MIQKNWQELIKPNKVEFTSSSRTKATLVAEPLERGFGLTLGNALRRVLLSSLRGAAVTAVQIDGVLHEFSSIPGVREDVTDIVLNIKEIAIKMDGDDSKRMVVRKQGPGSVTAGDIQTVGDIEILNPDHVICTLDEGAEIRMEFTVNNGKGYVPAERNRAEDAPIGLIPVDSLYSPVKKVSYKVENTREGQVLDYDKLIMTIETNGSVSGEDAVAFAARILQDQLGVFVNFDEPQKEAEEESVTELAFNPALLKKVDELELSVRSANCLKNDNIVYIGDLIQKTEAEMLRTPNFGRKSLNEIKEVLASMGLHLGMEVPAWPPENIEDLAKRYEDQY
Nature of the series: cell_activity. Conditions: pPS1.3 in E. coli MC4100(pSY215) with VirGcon; vector control 3; indirect reporter.

Series [2] concerns the target T2, RpoA delta C-terminal 8 (residues 1-328) deletion of 329-336 (Agrobacterium tumefaciens) (UniProt P0A4E3).
T2 sequence: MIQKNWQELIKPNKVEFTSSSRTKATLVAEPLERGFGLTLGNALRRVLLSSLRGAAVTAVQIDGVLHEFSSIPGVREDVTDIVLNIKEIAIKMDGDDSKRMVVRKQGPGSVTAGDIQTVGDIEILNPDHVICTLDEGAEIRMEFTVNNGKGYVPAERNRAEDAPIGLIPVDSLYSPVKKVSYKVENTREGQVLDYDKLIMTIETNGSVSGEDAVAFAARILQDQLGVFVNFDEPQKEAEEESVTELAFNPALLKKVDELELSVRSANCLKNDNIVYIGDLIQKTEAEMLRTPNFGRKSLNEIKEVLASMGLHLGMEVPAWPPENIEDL
Nature of the series: cell_activity. Conditions: pAD8 in E. coli MC4100(pSY215) with VirGcon; vector control 3; indirect reporter.

Series [3] has as its target T3, E. coli RNA polymerase β′ subunit (Escherichia coli, UniProt P0A8T7 1-1407).
T3 construct: also called E. coli β′
Briefly: in vitro reconstitution of RNAP, SDS-PAGE (FIG. 4A).

In series [4] the target is T4, E. coli RNA polymerase σ70 subunit (Escherichia coli, UniProt P00579 1-613).
T4 construct: also called σ^70
The description is as above.

Series [5] has as its target T5, E. coli RNA polymerase β subunit (Escherichia coli, UniProt P0A8V2 1-1342).
T5 construct: also called E. coli β
The description is as above.

T4 sequence (P00579 whole entry): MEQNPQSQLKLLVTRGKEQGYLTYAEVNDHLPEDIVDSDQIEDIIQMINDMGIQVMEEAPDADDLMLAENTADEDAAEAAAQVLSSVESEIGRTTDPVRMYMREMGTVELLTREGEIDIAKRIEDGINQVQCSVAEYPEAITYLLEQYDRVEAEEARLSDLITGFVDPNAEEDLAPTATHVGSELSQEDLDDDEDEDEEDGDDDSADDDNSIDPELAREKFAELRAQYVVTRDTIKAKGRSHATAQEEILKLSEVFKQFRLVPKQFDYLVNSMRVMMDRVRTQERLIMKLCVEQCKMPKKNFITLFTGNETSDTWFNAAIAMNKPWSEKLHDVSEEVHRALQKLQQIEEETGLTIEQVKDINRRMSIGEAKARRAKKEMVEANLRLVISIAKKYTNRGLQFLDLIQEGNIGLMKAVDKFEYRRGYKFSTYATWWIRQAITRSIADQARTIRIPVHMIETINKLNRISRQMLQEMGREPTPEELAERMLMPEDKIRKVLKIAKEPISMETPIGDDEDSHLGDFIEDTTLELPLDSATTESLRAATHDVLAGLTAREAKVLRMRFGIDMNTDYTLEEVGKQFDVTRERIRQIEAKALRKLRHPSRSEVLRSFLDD
T5 sequence (P0A8V2 whole entry): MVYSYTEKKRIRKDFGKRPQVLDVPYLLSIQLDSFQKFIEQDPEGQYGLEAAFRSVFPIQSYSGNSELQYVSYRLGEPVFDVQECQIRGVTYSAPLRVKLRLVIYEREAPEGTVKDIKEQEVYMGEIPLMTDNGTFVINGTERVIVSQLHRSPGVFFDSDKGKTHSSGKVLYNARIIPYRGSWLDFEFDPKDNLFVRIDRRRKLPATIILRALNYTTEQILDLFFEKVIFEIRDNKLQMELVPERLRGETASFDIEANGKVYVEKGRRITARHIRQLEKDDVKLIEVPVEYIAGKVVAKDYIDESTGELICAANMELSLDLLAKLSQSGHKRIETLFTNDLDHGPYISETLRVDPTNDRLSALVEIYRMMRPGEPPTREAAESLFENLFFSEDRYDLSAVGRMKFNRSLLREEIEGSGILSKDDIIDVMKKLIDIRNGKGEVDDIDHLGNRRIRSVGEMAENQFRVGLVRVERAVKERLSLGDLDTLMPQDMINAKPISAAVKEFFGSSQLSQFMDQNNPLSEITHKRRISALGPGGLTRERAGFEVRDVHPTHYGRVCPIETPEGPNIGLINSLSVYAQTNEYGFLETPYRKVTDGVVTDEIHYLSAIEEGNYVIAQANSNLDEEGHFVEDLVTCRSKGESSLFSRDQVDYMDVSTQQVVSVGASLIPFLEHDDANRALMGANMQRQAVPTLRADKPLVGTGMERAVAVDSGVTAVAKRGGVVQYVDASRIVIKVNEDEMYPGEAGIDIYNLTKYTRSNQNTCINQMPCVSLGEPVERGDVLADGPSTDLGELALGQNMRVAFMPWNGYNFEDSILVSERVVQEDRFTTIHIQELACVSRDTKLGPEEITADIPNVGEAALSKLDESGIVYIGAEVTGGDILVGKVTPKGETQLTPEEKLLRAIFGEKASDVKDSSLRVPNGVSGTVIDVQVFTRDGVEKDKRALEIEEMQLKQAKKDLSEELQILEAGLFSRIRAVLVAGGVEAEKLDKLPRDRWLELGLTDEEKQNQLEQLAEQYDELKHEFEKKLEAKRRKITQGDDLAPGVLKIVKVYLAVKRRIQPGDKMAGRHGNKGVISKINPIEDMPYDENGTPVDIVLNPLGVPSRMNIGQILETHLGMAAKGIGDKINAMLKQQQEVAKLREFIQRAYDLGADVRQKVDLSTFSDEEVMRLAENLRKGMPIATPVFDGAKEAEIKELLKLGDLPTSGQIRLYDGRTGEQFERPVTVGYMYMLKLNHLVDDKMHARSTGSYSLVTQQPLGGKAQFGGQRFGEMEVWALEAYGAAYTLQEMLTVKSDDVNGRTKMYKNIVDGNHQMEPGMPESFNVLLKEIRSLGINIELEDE
T3 sequence (P0A8T7 whole entry): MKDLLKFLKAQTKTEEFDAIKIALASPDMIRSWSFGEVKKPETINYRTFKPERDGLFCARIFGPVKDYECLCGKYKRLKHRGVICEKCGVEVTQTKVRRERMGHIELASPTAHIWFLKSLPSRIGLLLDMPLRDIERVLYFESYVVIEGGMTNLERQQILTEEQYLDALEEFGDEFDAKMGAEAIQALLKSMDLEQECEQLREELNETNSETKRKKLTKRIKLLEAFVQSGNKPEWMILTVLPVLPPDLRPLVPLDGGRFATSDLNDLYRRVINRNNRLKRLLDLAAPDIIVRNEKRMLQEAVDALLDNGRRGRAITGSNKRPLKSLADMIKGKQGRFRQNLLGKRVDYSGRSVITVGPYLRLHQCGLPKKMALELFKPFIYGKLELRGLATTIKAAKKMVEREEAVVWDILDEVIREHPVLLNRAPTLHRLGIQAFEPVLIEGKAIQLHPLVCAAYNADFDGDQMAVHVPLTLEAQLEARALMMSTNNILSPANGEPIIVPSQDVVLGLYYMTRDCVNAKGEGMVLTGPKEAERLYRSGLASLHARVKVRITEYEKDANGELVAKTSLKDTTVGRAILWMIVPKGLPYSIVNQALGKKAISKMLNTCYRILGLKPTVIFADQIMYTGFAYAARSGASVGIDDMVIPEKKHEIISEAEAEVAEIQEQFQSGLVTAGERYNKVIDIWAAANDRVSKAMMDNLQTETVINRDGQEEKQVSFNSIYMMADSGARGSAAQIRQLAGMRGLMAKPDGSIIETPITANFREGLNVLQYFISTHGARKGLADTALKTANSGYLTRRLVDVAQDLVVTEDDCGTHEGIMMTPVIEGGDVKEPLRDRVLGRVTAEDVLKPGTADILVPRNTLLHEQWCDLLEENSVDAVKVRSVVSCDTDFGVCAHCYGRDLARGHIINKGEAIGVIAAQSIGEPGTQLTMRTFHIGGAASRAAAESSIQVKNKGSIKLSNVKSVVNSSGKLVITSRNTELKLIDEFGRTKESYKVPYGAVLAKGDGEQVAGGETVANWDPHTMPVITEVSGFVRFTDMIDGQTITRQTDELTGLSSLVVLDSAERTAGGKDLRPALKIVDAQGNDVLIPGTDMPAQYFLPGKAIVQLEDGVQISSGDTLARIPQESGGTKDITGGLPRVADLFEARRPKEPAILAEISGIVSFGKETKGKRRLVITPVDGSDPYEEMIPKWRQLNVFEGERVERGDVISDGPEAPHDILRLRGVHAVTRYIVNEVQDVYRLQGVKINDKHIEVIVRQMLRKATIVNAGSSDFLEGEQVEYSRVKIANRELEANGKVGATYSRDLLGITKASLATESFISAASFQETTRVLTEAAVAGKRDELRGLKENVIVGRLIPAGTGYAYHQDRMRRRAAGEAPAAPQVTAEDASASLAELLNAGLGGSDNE

As for virBp::lacZ reporter promoter, the figures for the activity in series [1] and in series [2] were 140 Miller units and 4 Miller units, respectively.

B1: His-tagged RpoA (α subunit of RNA polymerase) of A. tumefaciens (other)
chain: MIQKNWQELIKPNKVEFTSSSRTKATLVAEPLERGFGLTLGNALRRVLLSSLRGAAVTAVQIDGVLHEFSSIPGVREDVTDIVLNIKEIAIKMDGDDSKRMVVRKQGPGSVTAGDIQTVGDIEILNPDHVICTLDEGAEIRMEFTVNNGKGYVPAERNRAEDAPIGLIPVDSLYSPVKKVSYKVENTREGQVLDYDKLIMTIETNGSVSGEDAVAFAARILQDQLGVFVNFDEPQKEAEEESVTELAFNPALLKKVDELELSVRSANCLKNDNIVYIGDLIQKTEAEMLRTPNFGRKSLNEIKEVLASMGLHLGMEVPAWPPENIEDLAKRYEDQY
notes: not shown: N-terminal His tag from a pQE vector (Qiagen)
Regarding B1, the binding result in series [3], in series [4] and in series [5] was “binds” in each case.
